Results published in paper doi:10.1101/2021.03.15.435138.

Biological target: C-terminal hexahistidyl-tagged GluN3A subunit (UniProt Q9R1M7)
Assay: pull-down

Chain of C-terminal hexahistidyl-tagged GluN3A subunit (Q9R1M7 24-1135): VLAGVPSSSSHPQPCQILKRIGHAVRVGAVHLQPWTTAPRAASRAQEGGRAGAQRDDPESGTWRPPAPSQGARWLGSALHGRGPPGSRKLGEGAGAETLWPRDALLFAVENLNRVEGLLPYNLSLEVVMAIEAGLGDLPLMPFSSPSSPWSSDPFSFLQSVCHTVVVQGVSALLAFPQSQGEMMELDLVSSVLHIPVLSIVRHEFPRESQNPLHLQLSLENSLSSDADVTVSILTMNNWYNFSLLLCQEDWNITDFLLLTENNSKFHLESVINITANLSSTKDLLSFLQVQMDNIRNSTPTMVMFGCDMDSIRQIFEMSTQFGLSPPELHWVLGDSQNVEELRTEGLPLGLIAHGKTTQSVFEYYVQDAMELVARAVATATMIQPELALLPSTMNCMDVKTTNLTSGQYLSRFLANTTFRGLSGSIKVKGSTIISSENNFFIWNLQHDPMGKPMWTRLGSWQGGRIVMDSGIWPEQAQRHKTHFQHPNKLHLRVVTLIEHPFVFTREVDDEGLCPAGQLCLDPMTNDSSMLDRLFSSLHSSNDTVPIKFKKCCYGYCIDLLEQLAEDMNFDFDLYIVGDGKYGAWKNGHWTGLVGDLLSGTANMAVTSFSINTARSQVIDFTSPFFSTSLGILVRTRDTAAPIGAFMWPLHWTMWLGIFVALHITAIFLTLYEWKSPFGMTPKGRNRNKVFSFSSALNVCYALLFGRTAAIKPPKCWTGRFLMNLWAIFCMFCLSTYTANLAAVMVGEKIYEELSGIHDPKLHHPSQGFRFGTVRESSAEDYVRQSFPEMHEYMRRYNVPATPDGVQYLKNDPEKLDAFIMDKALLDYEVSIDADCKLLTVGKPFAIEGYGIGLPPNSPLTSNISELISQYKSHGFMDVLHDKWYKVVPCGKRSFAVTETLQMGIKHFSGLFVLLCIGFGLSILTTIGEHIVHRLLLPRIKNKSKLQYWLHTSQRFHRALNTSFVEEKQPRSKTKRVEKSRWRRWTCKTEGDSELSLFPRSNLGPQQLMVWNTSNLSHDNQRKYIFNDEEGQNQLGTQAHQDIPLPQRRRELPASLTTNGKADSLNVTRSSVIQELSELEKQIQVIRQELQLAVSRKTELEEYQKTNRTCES

| stoichiometry N | Substance |
| --- | --- |
| 1 | GluN1-1a (splice variant 1a) NMDA receptor subunit, wild type (from UniProt P35439 19-938) |
| 1 | GluN1^1-802, M4-deleted GluN1 (from UniProt P35439 19-802) (domain or fragment) |
